Paper PMC11016754, “Allosteric Probe-Based Colorimetric Assay for Direct Identification and Sensitive Analysis of Methicillin Resistance of Staphylococcus aureus”

Target: T1, PBP2a (penicillin binding protein 2a) (Staphylococcus aureus …, UniProt Q53707 25-668)
T1 sequence: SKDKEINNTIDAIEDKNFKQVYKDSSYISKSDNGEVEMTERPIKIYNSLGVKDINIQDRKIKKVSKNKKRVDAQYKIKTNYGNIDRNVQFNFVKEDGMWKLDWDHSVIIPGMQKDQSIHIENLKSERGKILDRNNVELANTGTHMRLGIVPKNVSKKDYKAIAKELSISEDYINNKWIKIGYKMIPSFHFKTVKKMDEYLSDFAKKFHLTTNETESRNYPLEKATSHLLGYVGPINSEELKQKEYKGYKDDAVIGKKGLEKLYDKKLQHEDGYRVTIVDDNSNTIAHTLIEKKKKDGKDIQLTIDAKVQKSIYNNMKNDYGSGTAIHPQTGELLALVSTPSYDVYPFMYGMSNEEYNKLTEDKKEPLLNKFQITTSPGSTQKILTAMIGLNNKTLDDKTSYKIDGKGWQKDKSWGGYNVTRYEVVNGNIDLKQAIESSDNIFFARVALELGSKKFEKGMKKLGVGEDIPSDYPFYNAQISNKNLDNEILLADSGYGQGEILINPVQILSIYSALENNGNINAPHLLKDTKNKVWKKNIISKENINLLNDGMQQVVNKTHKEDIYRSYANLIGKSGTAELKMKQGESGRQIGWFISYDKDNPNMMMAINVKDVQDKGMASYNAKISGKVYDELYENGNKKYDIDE
Assay: fluorescence dequenching (FAM/BHQ hairpin opening); Binding-assay buffer not stated; amplification assay in PBS, room temperature, 60 min, 100 nM H1
Conditions: label: FAM and BHQ at the two termini

B1: H1 probe (allosteric hairpin with PBP2a aptamer section d) (structured_DNA)
DNA: CACCCCACCTCGCTCCCGTGACACTAATGCTATTTTTTTTTATTTCTTTATCCTCAGCTTAGTGTCACTAAGC
binding result: binds
